{
  "source": "patent US20250313631A1",
  "about": "(HUMMINGBIRD BIOSCIENCE PTE, published 2025)",
  "key": {"[1]": {"biological_target": "T1, mouse FcRn (His-tagged, Sino Biological CT009-H08H) (mouse, UniProt Q61559 22-297)", "T1 construct": "also called mFcRn", "T1 sequence (looked up)": "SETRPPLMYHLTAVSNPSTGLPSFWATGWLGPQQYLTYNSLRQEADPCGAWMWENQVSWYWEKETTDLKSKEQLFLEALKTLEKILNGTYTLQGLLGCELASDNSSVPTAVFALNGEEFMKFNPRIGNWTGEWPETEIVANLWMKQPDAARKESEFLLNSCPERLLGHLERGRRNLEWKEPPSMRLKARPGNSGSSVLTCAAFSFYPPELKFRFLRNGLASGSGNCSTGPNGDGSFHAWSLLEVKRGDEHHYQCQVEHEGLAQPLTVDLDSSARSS", "assay": "BLI (Octet QK384): His-tagged mFcRn on anti-Penta-HIS biosensor, antibody as analyte, PBS pH 5.8, global 1:1 fit; experiment 2"}, "[2]": {"biological_target": "T2, mouse FcγRIIb (His-tagged, Sino Biological 50030-M08H) (mouse, UniProt P08101 30-217)", "T2 construct": "also called mFcγRIIb", "T2 sequence (looked up)": "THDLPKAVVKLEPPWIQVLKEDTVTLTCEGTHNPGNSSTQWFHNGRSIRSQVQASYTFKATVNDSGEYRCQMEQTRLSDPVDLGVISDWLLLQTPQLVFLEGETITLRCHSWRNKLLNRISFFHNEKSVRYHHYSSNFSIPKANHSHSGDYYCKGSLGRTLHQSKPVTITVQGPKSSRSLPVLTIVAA", "assay": "BLI summary table, mFcgRIIb, pH 7.2"}, "[3]": {"biological_target": "T2, mouse FcγRIIb (His-tagged, Sino …)", "assay": "BLI (Octet QK384): His-tagged receptor on anti-Penta-HIS biosensor, antibody as analyte, PBS pH 7.2, global 1:1 fit; experiment 2"}, "[4]": {"biological_target": "T3, mouse FcγRIII (His-tagged, Sino Biological 50326-M08H) (mouse, UniProt P08508 31-215)", "T3 construct": "also called mFcγRIII", "T3 sequence (looked up)": "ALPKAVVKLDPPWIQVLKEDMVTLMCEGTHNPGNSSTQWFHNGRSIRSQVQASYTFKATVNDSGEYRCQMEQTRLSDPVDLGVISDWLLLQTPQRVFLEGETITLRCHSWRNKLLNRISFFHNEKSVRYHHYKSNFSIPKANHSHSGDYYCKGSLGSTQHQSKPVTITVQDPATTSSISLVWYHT", "assay": "BLI (Octet QK384): His-tagged receptor on anti-Penta-HIS biosensor, antibody as analyte, PBS pH 7.2, global 1:1 fit; experiment 2"}, "[5]": {"biological_target": "T4, mouse FcγRIV (His-tagged, Sino Biological 50036-M08H) (mouse, UniProt A0A0B4J1G0 21-203)", "T4 construct": "also called mFcγRIV; not shown: the histidine tag (and any linker) of the Sino Biological construct 50036-M08H", "T4 sequence": "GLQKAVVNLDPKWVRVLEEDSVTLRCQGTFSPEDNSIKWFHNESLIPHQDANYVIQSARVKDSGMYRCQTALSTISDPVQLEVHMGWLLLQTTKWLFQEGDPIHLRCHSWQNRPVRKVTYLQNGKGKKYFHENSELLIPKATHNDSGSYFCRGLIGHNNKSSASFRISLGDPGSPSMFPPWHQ", "assay": "BLI summary table, mFcgRIV, pH 7.2"}, "[6]": {"biological_target": "T3, mouse FcγRIII (His-tagged, Sino …)", "assay": "BLI summary table, mFcgRIII, pH 7.2"}, "[7]": {"biological_target": "T4, mouse FcγRIV (His-tagged, Sino …)", "assay": "BLI (Octet QK384): His-tagged receptor on anti-Penta-HIS biosensor, antibody as analyte, PBS pH 7.2, global 1:1 fit; experiment 2"}, "[8]": {"biological_target": "T2, mouse FcγRIIb (His-tagged, Sino …)", "assay": "BLI summary table, mFcgRIIb, pH 7.2", "remark": "listed apart in the source"}, "[9]": {"biological_target": "T1, mouse FcRn (His-tagged, Sino Biological …)", "assay": "BLI summary table, mFcRn, pH 5.8"}, "[10]": {"biological_target": "T3, mouse FcγRIII (His-tagged, Sino …)", "assay": "BLI summary table, mFcgRIII, pH 7.2", "remark": "listed apart in the source"}, "[11]": {"biological_target": "T3, mouse FcγRIII (His-tagged, Sino …)", "assay": "BLI summary table, mFcgRIII, pH 7.2", "remark": "listed apart in the source"}, "[12]": {"biological_target": "T4, mouse FcγRIV (His-tagged, Sino …)", "assay": "BLI summary table, mFcgRIV, pH 7.2", "remark": "listed apart in the source"}, "[13]": {"biological_target": "T1, mouse FcRn (His-tagged, Sino Biological …)", "assay": "BLI summary table, mFcRn, pH 5.8", "remark": "listed apart in the source"}, "[14]": {"biological_target": "T1, mouse FcRn (His-tagged, Sino Biological …)", "assay": "BLI summary table, mFcRn, pH 5.8", "remark": "listed apart in the source"}, "[15]": {"biological_target": "T4, mouse FcγRIV (His-tagged, Sino …)", "assay": "BLI summary table, mFcgRIV, pH 7.2", "remark": "listed apart in the source"}, "[16]": {"biological_target": "T2, mouse FcγRIIb (His-tagged, Sino …)", "assay": "BLI summary table, mFcgRIIb, pH 7.2", "remark": "listed apart in the source"}, "[17]": {"biological_target": "T4, mouse FcγRIV (His-tagged, Sino …)", "assay": "BLI (Octet QK384): His-tagged receptor on anti-Penta-HIS biosensor, antibody as analyte, PBS pH 7.2"}, "[18]": {"biological_target": "T1, mouse FcRn (His-tagged, Sino Biological …)", "assay": "BLI (Octet QK384): His-tagged mFcRn on anti-Penta-HIS biosensor, antibody as analyte, PBS pH 5.8, global 1:1 fit"}, "[19]": {"biological_target": "T3, mouse FcγRIII (His-tagged, Sino …)", "assay": "BLI (Octet QK384): His-tagged receptor on anti-Penta-HIS biosensor, antibody as analyte, PBS pH 7.2, global 1:1 fit"}, "[20]": {"biological_target": "T2, mouse FcγRIIb (His-tagged, Sino …)", "assay": "BLI (Octet QK384): His-tagged receptor on anti-Penta-HIS biosensor, antibody as analyte, PBS pH 7.2, global 1:1 fit"}},
  "note": "Several values for one entry are separate records, joined by “and”; a condition that tells them apart may be missing. Equal entries are not always repeated.",
  "data": [
    {"binder": "4M2-C12 mIgG2a (antibody, mouse IgG2a format, made in CHO cells; also called 4M2-C12 IgG2a) heavy: EVKLVESGPGLVKPSQSLSLTCTVTGYSITSDYAWNWIRQFPGNKLEWMGYITYSGNISYNPSLRSRISITRDTSKNQFFLQLNSVTPEDTATYSCARSLYYPWYFDVWGAGTTVTVSSAKTTAPSVYPLAPVCGDTTGSSVTLGCLVKGYFPEPVTLTWNSGSLSSGVHTFPAVLQSDLYTLSSSVTVTSSTWPSQSITCNVAHPASSTKVDKKIEPRGPTIKPCPPCKCPAPNLLGGPSVFIFPPKIKDVLMISLSPIVTCVVVDVSEDDPDVQISWFVNNVEVHTAQTQTHREDYNSTLRVVSALPIQHQDWMSGKEFKCKVNNKDLPAPIERTISKPKGSVRAPQVYVLPPPEEEMTKKQVTLTCMVTDFMPEDIYVEWTNNGKTELNYKNTEPVLDSDGSYFMYSKLRVEKKNWVERNSYSCSVVHEGLHNHHTTKSFSRTPGK light: DIVITQTPAILSTSPGEKVTMTCRASSSVGYIHWYQQKPGSSPKPWIYATSNLASGVPARFSGSGSGTSNSLTITRVEAEDAATYYCQQWSSYPPITFGGGTKLEVKRADAAPTVSIFPPSSEQLTSGGASVVCFLNNFYPKDINVKWKIDGSERQNGVLNSWTDQDSKDSTYSMSSTLTLTKDEYERHNSYTCEATHKTSTSPIVKSFNRNEC", "values": [
      {"measurement": "Kd", "setting": "[1]", "result": 49.6, "unit": "nM"},
      {"measurement": "koff", "setting": "[1]", "result": 0.011, "unit": "s⁻¹"},
      {"measurement": "kon", "setting": "[1]", "result": 220000, "unit": "M⁻¹ s⁻¹"},
      {"measurement": "kon", "setting": "[2]", "result": "51000 M⁻¹ s⁻¹ and 55000 M⁻¹ s⁻¹"},
      {"measurement": "Kd", "setting": "[3]", "result": 2190, "unit": "nM"},
      {"measurement": "koff", "setting": "[3]", "result": 0.12, "unit": "s⁻¹"},
      {"measurement": "kon", "setting": "[3]", "result": 55000, "unit": "M⁻¹ s⁻¹"},
      {"measurement": "Kd", "setting": "[4]", "result": 977, "unit": "nM"},
      {"measurement": "koff", "setting": "[4]", "result": 0.066, "unit": "s⁻¹"},
      {"measurement": "kon", "setting": "[4]", "result": 67000, "unit": "M⁻¹ s⁻¹"},
      {"measurement": "kon", "setting": "[5]", "result": "96000 M⁻¹ s⁻¹ and 92000 M⁻¹ s⁻¹"},
      {"measurement": "kon", "setting": "[6]", "result": "55000 M⁻¹ s⁻¹ and 67000 M⁻¹ s⁻¹"},
      {"measurement": "Kd", "setting": "[7]", "result": 372, "unit": "nM"},
      {"measurement": "koff", "setting": "[7]", "result": 0.034, "unit": "s⁻¹"},
      {"measurement": "kon", "setting": "[7]", "result": 92000, "unit": "M⁻¹ s⁻¹"},
      {"measurement": "koff", "setting": "[8]", "result": "0.045 s⁻¹ and 0.12 s⁻¹"},
      {"measurement": "koff", "setting": "[9]", "result": "0.0059 s⁻¹ and 0.011 s⁻¹"},
      {"measurement": "Kd", "setting": "[10]", "result": "794 nM and 977 nM"},
      {"measurement": "koff", "setting": "[11]", "result": "0.044 s⁻¹ and 0.066 s⁻¹"},
      {"measurement": "Kd", "setting": "[12]", "result": "258 nM and 372 nM"},
      {"measurement": "kon", "setting": "[13]", "result": "190000 M⁻¹ s⁻¹ and 220000 M⁻¹ s⁻¹"},
      {"measurement": "Kd", "setting": "[14]", "result": "31.5 nM and 49.5 nM"},
      {"measurement": "koff", "setting": "[15]", "result": "0.025 s⁻¹ and 0.034 s⁻¹"},
      {"measurement": "Kd", "setting": "[16]", "result": "876 nM and 2190 nM"}
    ]},
    {"binder": "4M2-C12 mIgG1 (antibody) heavy chain: EVKLVESGPGLVKPSQSLSLTCTVTGYSITSDYAWNWIRQFPGNKLEWMGYITYSGNISYNPSLRSRISITRDTSKNQFFLQLNSVTPEDTATYSCARSLYYPWYFDVWGAGTTVTVSSAKTTPPSVYPLAPGSAAQTNSMVTLGCLVKGYFPEPVTVTWNSGSLSSGVHTFPAVLQSDLYTLSSSVTVPSSTWPSETVTCNVAHPASSTKVDKKIVPRDCGCKPCICTVPEVSSVFIFPPKPKDVLTITLTPKVTCVVVDISKDDPEVQFSWFVDDVEVHTAQTQPREEQFNSTFRSVSELPIMHQDWLNGKEFKCRVNSAAFPAPIEKTISKTKGRPKAPQVYTIPPPKEQMAKDKVSLTCMITDFFPEDITVEWQWNGQPAENYKNTQPIMNTNGSYFVYSKLNVQKSNWEAGNTFTCSVLHEGLHNHHTEKSLSHSPGK light chain: DIVITQTPAILSTSPGEKVTMTCRASSSVGYIHWYQQKPGSSPKPWIYATSNLASGVPARFSGSGSGTSNSLTITRVEAEDAATYYCQQWSSYPPITFGGGTKLEVKRADAAPTVSIFPPSSEQLTSGGASVVCFLNNFYPKDINVKWKIDGSERQNGVLNSWTDQDSKDSTYSMSSTLTLTKDEYERHNSYTCEATHKTSTSPIVKSFNRNEC", "values": [
      {"measurement": "kon", "setting": "[2]", "result": 90000, "unit": "M⁻¹ s⁻¹"},
      {"measurement": "binding result", "setting": "[17]", "result": "no binding"},
      {"measurement": "Kd", "setting": "[18]", "result": 93.9, "unit": "nM"},
      {"measurement": "koff", "setting": "[18]", "result": 0.016, "unit": "s⁻¹"},
      {"measurement": "kon", "setting": "[18]", "result": 170000, "unit": "M⁻¹ s⁻¹"},
      {"measurement": "kon", "setting": "[6]", "result": 270000, "unit": "M⁻¹ s⁻¹"},
      {"measurement": "koff", "setting": "[8]", "result": 0.117, "unit": "s⁻¹"},
      {"measurement": "koff", "setting": "[9]", "result": 0.016, "unit": "s⁻¹"},
      {"measurement": "Kd", "setting": "[10]", "result": 455, "unit": "nM"},
      {"measurement": "koff", "setting": "[11]", "result": 0.125, "unit": "s⁻¹"},
      {"measurement": "Kd", "setting": "[19]", "result": 455, "unit": "nM"},
      {"measurement": "koff", "setting": "[19]", "result": 0.125, "unit": "s⁻¹"},
      {"measurement": "kon", "setting": "[19]", "result": 270000, "unit": "M⁻¹ s⁻¹"},
      {"measurement": "kon", "setting": "[13]", "result": 170000, "unit": "M⁻¹ s⁻¹"},
      {"measurement": "Kd", "setting": "[20]", "result": 1300, "unit": "nM"},
      {"measurement": "koff", "setting": "[20]", "result": 0.117, "unit": "s⁻¹"},
      {"measurement": "kon", "setting": "[20]", "result": 90000, "unit": "M⁻¹ s⁻¹"},
      {"measurement": "Kd", "setting": "[14]", "result": 93.9, "unit": "nM"},
      {"measurement": "Kd", "setting": "[16]", "result": 1300, "unit": "nM"}
    ]}
  ]
}
